# B1: antibody 992 (antibody, human IgG1, kappa, V domains shown)
# VH: EVQLQQPGSELVRPGASVKLSCKASGYTFTSYWMHWVKQRPGQGLEWIGNIYPGSRSTNYDEKFKSKATLTVDTSSSTAYMQLSSLTSEDSAVYYCTRNGDYYVSSGDAMDYWGQGTSVTVSS
# VL: DIQMTQTTSSLSASLGDRVTISCRTSQDIGNYLNWYQQKPDGTVKLLIYYTSRLHSGVPSRFSGSGSGTDFSLTINNVEQEDVATYFCQHYNTVPPTFGGGTKLEIKR
# notes: Chimeric mouse/human IgG1 kappa; the VL entry includes the human kappa constant region
# B2: antibody 1024 (antibody, human IgG1, kappa, V domains shown)
# VH: QVQLQQPGAELVEPGGSVKLSCKASGYTFTSHWMHWVKQRPGQGLEWIGEINPSSGRNNYNEKFKSKATLTVDKSSSTAYMQFSSLTSEDSAVYYCVRYYGYDEAMDYWGQGTSVTVSS
# VL: DIVMTQAAFSNPVTLGTSASISCRSSKSLLHSNGITYLYWYLQKPGQSPQLLIYQMSNLASGVPDRFSSSGSGTDFTLRISRVEAEDVGVYYCAQNLELPYTFGGGTKLEIKR
# notes: Chimeric IgG1 kappa
# B3: antibody 1261 (antibody, human IgG1, kappa, V domains shown)
# VH: EVQLVESGGGLVKPGGSLKLSCAVSGFTFSSYVMSWVRQTPEKRLEWVATITSGGRNIYYLDSVKGRFTISRDNAKNTLYLQMSSLRSEDTAMYYCARHEDYRYDGYYAMDYWGQGTSVTVSS
# VL: QIVLTQSPAIMSASPGEKVTITCSASSSVSYMHWFQQKPGTSPKLWIYSTSNLASGVPARFSGSGSGTSYSLTISRMEAEDAATYYCQQRSSYPYTFGGGTKLELKR
# notes: Chimeric IgG1 kappa
# B4: antibody 1347 (antibody, human IgG1, kappa, V domains shown)
# VH: QVQLKESGPGLVAPSQSLSITCTVSGFSLTGHGVNWVRQPPGKGLEWLGMIWGDGSTDYNSTLKSRLSISKDNSKSQVFLKMNSLQTDDTARYYCARGYGYLYYFDYWGQGTTLTVSS
# VL: ENVLTQSPAIMSASPGEKVTMTCRASSSVSSSYLHWYQQKSGASPKLWIYSTSNLASGVPARFSGSGSGTSYSLTVNSVETEDAATYYCHQYSGFPFTFGSGTKLELKR
# notes: Chimeric IgG1 kappa
# B5: antibody 1030 (antibody, human IgG1, kappa, V domains shown)
# VH: EVQLVESGGGLVKPGGSLKLSCAASGFTFSSYALSWVRQTPERRLEWVASISGVGSTYFPDSVKGRFTMSRDNARNILYLQMSSLRSEDTAMYYCARGSDGYFYAMDYWGQGTSVTVSS
# VL: DIVLTQSPASLAVSLGQRATISCRASKSVSTSGYSFMHWYQLKPGQPPKLLIYLASNLESGVPARFSGSGSGTDFTLNIHPVEEEDAATYYCQHSREFPLTFGGGTKLEIKR
# notes: Chimeric IgG1 kappa
# B6: antibody 1320 (antibody, human IgG1, kappa, V domains shown)
# VH: QVQLQQPGAELVKPGASMKLSCKASGYTFTNYWMHWVKQRPGQGLEWIGEINPSNGRTNYNEKFKSKATLTVDKSSSTAYMQLSSLTSEDSGVYYCAKGGNYYDYDWDYWGQGTTLTVSS
# VL: DIQMTQTTSSLSASLGDRVTISCSASQDISNYLNWYQQKPDGTVKLLIYHTSTLHSGVPSRFSGSGSGTDYSLTISNLEPEDIATYYCQQYSKLPWTFGGGTKLEIKR
# notes: Chimeric IgG1 kappa
# Target: T1, recombinant human EGFR extracellular domain with 6xHis (human, UniProt P00533 25-645)
# T1 construct: In-house produced; also called 6xHis EGFR ECD; soluble human EGFR ECD; not shown: 6xHis tag
# Assay: SPR, EGFR ECD without competitor
# Method: (§1) SPR analysis was performed on a Biacore 3000 machine containing four flow cells. A CM5 Biacore chip was conjugated with 10,000 Resonance units (Ru) polyclonal anti-His antibody to flow cells 1-4 according to the manufacturer's instructions. […] Immediately after antigen injection the maximal binding of the Anti-EGFR mAb without competition was established in each flow cell during a reference run. Briefly 5 μl antibody at a concentration of 40 μg/ml was injected over all flow cells with captured EGFR followed by stripping of the antibody/antigen complex with a low pH acid wash (10 sec. contact time with 10 mM Glycine-HCl, pH2). After the determination of Anti-EGFR antibody maximal binding to each flow cell, a competition run was performed during the same Biacore cycle. Flow cells were first saturated with EGFR ECD antigen followed by injection of different reference antibodies or Anti-EGFR antibodies into separate flow cells using the same antigen saturating conditions as outlined above. This step was immediately followed by a second injection of Anti-EGFR antibody over the flow cell saturated with EGFR antigen and competition antibody to minimize the dissociation of either antigen or blocking antibody. Then the antibody/antigen complexes were stripped off with a low pH acid wash (10 sec. contact time with 10 mM Glycine-HCl, pH 2) and the whole cycle beginning with the reference run was repeated with a new Anti-EGFR antibody. The degree of inhibition of tested Anti-EGFR antibodies were determined by comparing the Ru max value of the individual Anti-EGFR antibody before and after competition by introduction of report points recorded two seconds before and after injection of each sample.
row,Rumax reference cycle [Ru],Binder
1,81,B1
2,100,B2
3,157,B3
4,75,B4

# Target: T2, full length human EGFR expressed on the cell surface (human, UniProt P00533 25-1210)
# T2 construct: whole, on cells; also called EGFR on A431-NS cells; EGFR on HN5 cells
# Assay: cell ELISA, IgG titrated on unfixed A431-NS cells
# Method: (§2) Cell ELISA: The ELISA was performed essentially as described in example 15 with modifications. Cells were left unfixed to allow conformational EGFR flexibility after antibody additions. Briefly, 10,000 A431-NS cells were grown in 96 well ELISA plates containing DMEM with added 0.5% FCS and 1% P/S at 37° C., 5% CO₂ overnight. […] 25 μl DMEM containing 1% BSA was added to wells used for testing of IgG antibodies without added Fab fragments. […] Next, wells were washed four times with PBS and 50 μl of a secondary monoclonal Mouse-anti-Human (Fc specific) HRP conjugate diluted 1:5000 in DMEM containing 1% BSA was added and incubated on ice for 30 min. Finally wells were washed four times with PBS and plates developed by adding 50 μl/well TMB substrate and read at 620 nm every 5-15-30 min. After incubation with substrate the reaction was stopped by addition of 1 M H₂SO₄ and absorbance read at 450 nm. The functional affinity expressed as ED50 values were calculated by subtraction of the average background binding with secondary reagent only, followed by normalization of the binding curves by plotting % maximal binding relative to each antibody tested.
# (§3) Investigations of antibody induced binding enhancements were determined by concurrent ELISA binding studies, employing same secondary antibody reagent and incubation times.
row,Log ED50,Binder
1,-0.24,B1
2,-0.01,B2
3,0.33,B5

# Target: T1, recombinant human EGFR extracellular …
# Assay: SPR, reference cycle of the run with mix N=6-1
# Method: as §1
row,Rumax reference cycle [Ru],Binder
1,71,B1
2,122,B2
3,139,B3
4,107,B4
5,74,B5

# Target: T2, full length human EGFR expressed on the …
# Assay: cell ELISA, IgG titrated on paraformaldehyde-fixed A431-NS cells
# Method: (§4) Cell ELISA: The relative binding affinities defined as the molar concentration giving the half maximal OD (ED50) were determined by antibody titrations on A431-NS cells. Briefly, 10,000 A431-NS cells were grown in 96 well ELISA plates containing DMEM with added 0.5% FCS and 1% P/S at 37° C., 5% CO₂ overnight. […] Then 50 μl of a secondary Goat-anti-Human (Fab specific) HRP conjugate diluted 1:5000 in DMEM containing 1% BSA was added and incubated on ice for 30 min. Finally wells were washed four times with PBS and plates developed by adding 50 μl/well TMB Plus substrate and read at 620 nm every 5-15-30 min. After incubation with substrate the reaction was stopped by addition of 1 M H₂SO₄ and absorbance read at 450 nm. The functional affinity expressed as ED50 values were calculated by subtraction of the average background binding with secondary reagent only, followed by normalization of the binding curves by plotting % maximal binding relative to each antibody tested.
row,Log ED50,Binder
1,-0.56,B1
2,-0.49,B2
3,0.17,B5

# Target: T2, full length human EGFR expressed on the …
# Assay: FACS on CHO cells transfected with full length Human EGFR
# Method: Bound antibody was detected with a PE labelled goat F(ab′)₂ anti-human IgG FC. Gating was performed on uniform cells (SCC/FCS properties) expressing EGFR. Binding is expressed as % maximal antibody binding at 1 nM concentration.
# Briefly quantitative FACS analysis was performed on a BD FACS array Bioanalyzer System to determine the number of EGFR molecules expressed on the surface of CHO cells transfected with either Human or Cynomolgus full length EGFR. […] Antibodies were incubated with cells for 14 hours on a shaker, to promote full antigen saturation at all antibody concentrations tested, while FACS buffer was added 0.02% NaN₃ and temperature kept at 4° C. to prevent receptor internalization. After incubation, cells were pelleted at 1200 RPM for 5 min at 4° C. and resuspended in 200 ul FACS buffer. Next cells were stained with a secondary Goat F(ab′)₂ anti-Human IgG FcGamma PE diluted 1:500 and incubated for 30 min at 4° C. on a shaker. Finally cells were washed twice in FACS buffer and analyzed on a BD FACS array Bioanalyzer System with gating on EGFR expressing CHO cells displaying uniform forward/side scatter properties.
row,EC50 (read off the curve) [nM],Binder
1,~0.01,B1
2,~0.01,B2
3,~0.01,B6

# Target: T2, full length human EGFR expressed on the …
# Assay: cell ELISA, IgG titrated on unfixed A431-NS cells; given as ED50
# Method: as §2, §3
row,EC50 [nM],Binder
1,0.6,B1
2,1,B2
3,2.2,B5

# Target: T2, full length human EGFR expressed on the …
# Assay: cell ELISA, IgG titrated on paraformaldehyde-fixed A431-NS cells; given as ED50
# Method: as §4
row,EC50 [nM],Binder
1,0.3,B1
2,0.3,B2
3,1.5,B5

# Target: T1, recombinant human EGFR extracellular …
# Assay: SPR competition, EGFR ECD first saturated with mix N=6 1261+1347+992+1024+1030+1361
# Method: as §1
% inhibition [%],Rumax competition cycle [Ru],Binder
116,-14,B1
113,-14,B2
95,7,B3
80,19,B4
87,12,B5

# Reference: US20110135636A1 (SYMPHOGEN A S, published 2011)
